Laboratory results published in patent publication US20250154277A1 (CONCEPT TO MEDICINE BIOTECH, published 2025).
Like-named read-outs stand apart in the source and are kept apart here.

What was measured:
[1] = target: T1, human 5T4-His protein (human, UniProt Q13641 32-355); test: ELISA, coated antigen
T1 construct: also called recombinant 5T4 protein (human 5T4-his tag); human 5T4 protein; not shown: His tag
T1 sequence (looked up): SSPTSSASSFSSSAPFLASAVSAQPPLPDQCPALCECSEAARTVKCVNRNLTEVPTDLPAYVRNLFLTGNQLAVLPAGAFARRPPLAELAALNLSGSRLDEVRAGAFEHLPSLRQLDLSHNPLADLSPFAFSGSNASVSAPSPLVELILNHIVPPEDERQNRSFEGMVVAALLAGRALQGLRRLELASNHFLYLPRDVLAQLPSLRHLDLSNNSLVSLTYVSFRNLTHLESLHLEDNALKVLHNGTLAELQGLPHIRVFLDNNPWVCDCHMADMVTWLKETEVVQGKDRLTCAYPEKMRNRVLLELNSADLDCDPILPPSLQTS
Experimental: (§1) ELISA testing was carried out to evaluate the binding of chimeric antibodies to human and cynomolgus, respectively. The antibody portion of naptumomab (NeoTX) that targets 5T4 (abbreviated as naptumomab in the present disclosure), was generated and used as a benchmark.
(§2) Briefly, microtiter plates were coated with human and cynomolgus 5T4 proteins at […] in PBS, 100 μl/well at 4° C. overnight, then blocked with 150 μl/well of 1% BSA. Serial dilutions of chimeric antibodies were added to each well and incubated for 1 hour at RT. The plates were washed with PBS/Tween and then incubate with mouse-anti-human IgG Fc antibody conjugated with Horse Radish Peroxidase (HRP) for 30 mins at RT. After washing, the plates were developed with TMB substrate and analyzed by spectrophotometer at OD 450 nm. All the 5T4 chimeric mAbs bound to human and cynomolgus 5T4 (FIG. 1-2 and Table 3).

[2] = target: T2, cynomolgus 5T4 protein (cynomolgus monkey, UniProt Q4R8Y9 35-355, limits assumed); test: ELISA, coated antigen
T2 construct: Coated protein in ELISA; the screening step names a cyno 5T4-His protein; also called cyno 5T4; recombinant cyno 5T4-His protein
T2 sequence (looked up): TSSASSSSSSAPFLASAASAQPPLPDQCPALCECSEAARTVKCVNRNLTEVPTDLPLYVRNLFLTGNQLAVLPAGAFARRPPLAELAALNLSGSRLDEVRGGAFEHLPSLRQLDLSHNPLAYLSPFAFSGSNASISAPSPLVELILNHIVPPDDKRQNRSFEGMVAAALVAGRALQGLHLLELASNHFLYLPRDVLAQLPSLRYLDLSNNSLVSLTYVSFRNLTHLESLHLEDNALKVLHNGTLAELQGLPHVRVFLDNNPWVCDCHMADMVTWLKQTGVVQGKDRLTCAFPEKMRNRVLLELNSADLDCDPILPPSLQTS
Experimental: as §1, §2

[3] = target: T1, human 5T4-His protein; test: SPR Biacore, Protein A capture
Experimental: The binding of the chimeric mAbs from these clones against recombinant 5T4 protein (human 5T4-his tag) was tested with Biacore using a capture method. The mAbs were captured using Protein A chip. A serial dilution of human 5T4-his tag protein was injected over captured antibody for 2-3 mins at a flow rate of 30 μl/min. The antigen was allowed to dissociate for 360-1000 s. All the experiments were carried out on a Biacore T200. Data analysis was carried out using Biacore T200 evaluation software.

[4] = target: T1, human 5T4-His protein; test: ELISA, coated 5T4-His
Experimental: To evaluate the binding activity of clones, the 286B4 chimeric antibody along with 286B4 humanized mAbs were subjected to ELISA test.
Briefly, microtiter plates were coated with human 5T4-His protein at 1 μg/ml in PBS, 100 μl/well at 4° C. overnight, then blocked with 150 μl/well of 1% BSA. 4-fold dilutions of tested antibodies starting from 20 nM were added to each well and incubated for 1 hour at 37° C. The plates were washed with PBS/Tween and then incubated with Goat Anti-Human IgG-HRP for 30 mins at 37° C. After washing, the plates were developed with TMB substrate and analyzed by spectrophotometer at OD 450 nm. As shown in FIG. 16 and Table 15, most of the humanized clones bound to human 5T4 with high potency.

[5] = target: T1, human 5T4-His protein; test: SPR Biacore, Protein A capture; remark: listed apart in the source
Experimental: The binding of the 286B4 humanized antibodies to recombinant 5T4 protein (human 5T4-his tag) was tested with Biacore using a capture method. The mAbs were captured using Protein A chip. A serial dilution of human 5T4-his tag protein was injected over captured antibody for 3 mins at a flow rate of 30 μl/min. The antigen was allowed to dissociate for 280-800 s. All the experiments were carried out on a Biacore T200. Data analysis was carried out using the Biacore T200 evaluation software.

B1: 449H9 chimeric antibody (antibody, V domains shown)
VH: QVQLQQSGAELVRPGSSVRISCKASGYAFSNYWMNWVKQRPGQGLEWIGQIYPGDGDTNYNGKFKNKATLTTDKSSSTAYMQLSSLTSEDSAVYFCARHYDYPYYYAMDYWGQGTSVTVSS
VL: DIQMTQSPSSLSASLGERVSLTCRASQDIGIALTWLQQEPDGTIKRLIYATSSLDSGVPKRFSGSRSGSDYTLTISSLESEDFVDYYCLQYIISPYTFGGGTKLEIK
notes: chimeric mAb
EC50 [1]: 0.37 nM | EC50 [2]: 0.1 nM | Kd [3]: 0.381 nM | koff [3]: 0.000115 s⁻¹ | kon [3]: 301000 M⁻¹ s⁻¹

B2: 425G1 chimeric antibody (antibody, V domains shown)
VH: EVQLQQSGAELVKPGASVKLSCTASGFNIKDTYMHWVKQRPEQGLEWIGRIDPANGHTIFASKFQGKATITADTSSNTAYMQLSSLTSGDTAVYYCGLFTMVVVPWYFDVWGTGTTVTVSS
VL: DIVMTQSHKFMSTSVGDRVSITCKASQDVSTAVAWYQQKPGQSPKLLIYWASTRHTGVPDRFTGSGSGTDYTLTISSVQAEDLALYYCQQHYSSPLTFGAGTKLELK
notes: chimeric mAb
EC50 [1]: 0.29 nM | EC50 [2]: 0.23 nM | Kd [3]: 1.64 nM | koff [3]: 0.000215 s⁻¹ | kon [3]: 131000 M⁻¹ s⁻¹

B3: 109H7 chimeric antibody (antibody, V domains shown)
VH: QVQLQQSGAELMKPGASVKLSCKATGYTFTGYWIEWVKQRPGQGLEWIGETLPGRGSTNYNEKFKGKATFTADTSSNIVYMQLSSLTIEDSAIYYCARGRRDFDYWGQGTTLTVSS
VL: DIQMTQTTSSLSASLGDEVTISCSASQGINNYLNWYQQKPDGTVKLLIYYTSSLHSGVPSRFSGSGSGTDYSLTIINLEPEDIATYYCQQFSKLPFTFGSGTKLEIR
notes: chimeric mAb
EC50 [1]: 0.31 nM | EC50 [2]: 0.19 nM | Kd [3]: 0.606 nM | koff [3]: 0.000391 s⁻¹ | kon [3]: 645000 M⁻¹ s⁻¹

B4: Hu286B4-8 (antibody, V domains shown)
VH: EVQLQESGPGLVKPSDTLSLTCAVSGYSISNNYYWNWIRQPPGKGLEWIGYITYDGSNNYNPSLKNRITMSRDTSKNQFSLKLSSVTAVDTAVYYCARGGGQLRFDYWGQGTTVTVSS
VL: DIQMTQSPSSLSASVGDRVTITCKASQSVSNEVTWYQQKPGKAPKMLIYYASNRYTGVPDRFSGSGYGTDFTFTISSLQPEDIATYYCQQDYSSPWTFGGGTKVEIK
notes: humanized
EC50 [4]: 0.68 nM | Kd [5]: 1.08 nM | koff [5]: 0.000103 s⁻¹ | kon [5]: 94600 M⁻¹ s⁻¹

B5: Hu286B4-13 (antibody, V domains shown)
VH: EVQLQESGPGLVKPSDTLSLTCAVSGYSISNNYYWNWIRQPPGKGLEWMGYITYDGSNNYNPSLKNRITVSRDTSKNQFSLKLSSVTAVDTAVYYCARGGGQLRFDYWGQGTTVTVSS
VL: DIQMTQSPSSLSASVGDRVTITCKASQSVSNEVTWYQQKPGKAPKMLIYYASNRYTGVPDRFSGSGYGTDFTFTISSLQPEDIATYYCQQDYSSPWTFGGGTKVEIK
notes: humanized
EC50 [4]: 0.57 nM | Kd [5]: 1.12 nM | koff [5]: 0.000107 s⁻¹ | kon [5]: 95500 M⁻¹ s⁻¹

B6: Hu286B4-5 (antibody, V domains shown)
VH: EVQLQESGPGLVKPSDTLSLTCAVSGYSISNNYYWNWIRQPPGKGLEWIGYITYDGSNNYNPSLKNRVTMSRDTSKNQFSLKLSSVTAVDTAVYYCARGGGQLRFDYWGQGTTVTVSS
VL: SIVMTQSPSSLSASVGDRVTITCKASQSVSNEVTWYQQKPGKSPKMLIYYASNRYTGVPDRFSGSGYGTDFTFTISSLQPEDIATYFCQQDYSSPWTFGGGTKVEIK
notes: humanized
EC50 [4]: 0.28 nM | Kd [5]: 1.2 nM | koff [5]: 0.000128 s⁻¹ | kon [5]: 106000 M⁻¹ s⁻¹

B7: Hu286B4-3 (antibody, V domains shown)
VH: EVQLQESGPGLVKPSDTLSLTCAVSGYSISNNYYWNWIRQPPGKGLEWIGYITYDGSNNYNPSLKNRVTMSRDTSKNQFSLKLSSVTAVDTAVYYCARGGGQLRFDYWGQGTTVTVSS
VL: DIQMTQSPSSLSASVGDRVTITCKASQSVSNEVTWYQQKPGKAPKMLIYYASNRYTGVPDRFSGSGYGTDFTFTISSLQPEDIATYYCQQDYSSPWTFGGGTKVEIK
notes: humanized
EC50 [4]: 0.51 nM | Kd [5]: 1.14 nM | koff [5]: 0.000107 s⁻¹ | kon [5]: 93400 M⁻¹ s⁻¹

B8: Hu286B4-15 (antibody, V domains shown)
VH: EVQLQESGPGLVKPSDTLSLTCAVSGYSISNNYYWNWIRQPPGKGLEWMGYITYDGSNNYNPSLKNRITVSRDTSKNQFSLKLSSVTAVDTAVYYCARGGGQLRFDYWGQGTTVTVSS
VL: SIVMTQSPSSLSASVGDRVTITCKASQSVSNEVTWYQQKPGKSPKMLIYYASNRYTGVPDRFSGSGYGTDFTFTISSLQPEDIATYFCQQDYSSPWTFGGGTKVEIK
notes: humanized
EC50 [4]: 0.25 nM | Kd [5]: 1.04 nM | koff [5]: 0.000114 s⁻¹ | kon [5]: 110000 M⁻¹ s⁻¹

B9: Hu286B4-18 (antibody, V domains shown)
VH: EVQLQESGPGLVKPSDTLSLTCAVSGYSITNNYYWNWIRQPPGKGLEWMGYITYDGSNNYNPSLKNRITVSRDTSKNQFSLKLSSVTAVDTAVYYCTRGGGQLRFDYWGQGTTVTVSS
VL: DIQMTQSPSSLSASVGDRVTITCKASQSVSNEVTWYQQKPGKAPKMLIYYASNRYTGVPDRFSGSGYGTDFTFTISSLQPEDIATYYCQQDYSSPWTFGGGTKVEIK
notes: humanized
EC50 [4]: 0.42 nM | Kd [5]: 1.18 nM | koff [5]: 0.000133 s⁻¹ | kon [5]: 113000 M⁻¹ s⁻¹

B10: 367B8 chimeric antibody (antibody, V domains shown)
VH: QVQLQQPGTELVKPGASVKLSCKASGYTFTSYWMHWVKQRPEQGLEWIGNINPSNGNTNYNENFKSQATLTVDKSSSTAYMQLSSLTSEDSAVYYCARGGWDFDYWGQGTTLTVSS
VL: QVVLTQSPAIMSASPGEKVTMTCSASSSVRYIHWYQQRSGTSPKRWIYDTSKLTSGVPVRFSGSGSGTSYSLTISSMEAEDAATYYCQQWTSKPPWTFGGGTKLEIR
notes: chimeric mAb
EC50 [1]: 0.86 nM | EC50 [2]: 0.13 nM | Kd [3]: 0.285 nM | koff [3]: 0.000167 s⁻¹ | kon [3]: 588000 M⁻¹ s⁻¹

B11: 353H11 chimeric antibody (antibody, V domains shown)
VH: QVQLQQPGTELVKPGASVKLSCKASDYTFTSYWMHWVKQRPEQGLEWIGNINPSNGNTNYNEKFKNKATLTVDKSSSTAYMQLSSLTFEDSAVYYCARGGWDFDYWGQGTTLTVSS
VL: QVVLTQSPAIMSASPGEKVTMTCSASSSVRYMHWYQQRSGTSPKRWIYDTSKLTSGVPARFSGSGSGTSYSLTISSMEAEDAATYYCQLWTSKPPWTFGGGTKLEIR
notes: chimeric mAb
EC50 [1]: 0.73 nM | EC50 [2]: 0.13 nM | Kd [3]: 0.24 nM | koff [3]: 9.63e-05 s⁻¹ | kon [3]: 401000 M⁻¹ s⁻¹

B12: 389G2 chimeric antibody (antibody, V domains shown)
VH: QVQLQQPGTELVKPGASVKLSCKASGYTFTSYWMHWVKQRPEQGLEWIGNINPSNGNTNYNERFKSKATLTVDKSSSTAYMQLSSLTSEDSTVYYCARGGWDFDYWGQGTTLTVSS
VL: QVVLTQSPAIMSASPGEKVTMTCSASSSVRYIHWYQQRSGTSPKRWIYDTSKLTSGVPVRFSGSGSGTSFSLTISSMEAEDAATYYCQQWTSKPPWTFGGGTKLEIK
notes: chimeric mAb
EC50 [1]: 0.23 nM | EC50 [2]: 0.19 nM | Kd [3]: 0.49 nM | koff [3]: 0.000138 s⁻¹ | kon [3]: 282000 M⁻¹ s⁻¹

B13: 493E10 chimeric antibody (antibody, V domains shown)
VH: DVQLVESGGGLVQPGGSRKLSCAASGFTFSSFGMHWVRQAPEKGLEWVAYISSGSSTIYYADTVKGRFTISRDNPKNTLFLQMTSLRSEDTAMYYCARNRAYHREAMDYWGQGTSVTVSS
VL: DIVLTQSPASLTVSLGQRATISCRASQSVSSSSYNYMHWYQQKPGQPPKLLIKSASNLESGVPARFSGSGSGTDFTLNIHPVEEEDTATYYCQHSWEIPYTFGGGTKLEIK
notes: chimeric mAb
EC50 [1]: 0.28 nM | EC50 [2]: 0.25 nM | Kd [3]: 0.626 nM | koff [3]: 0.000402 s⁻¹ | kon [3]: 642000 M⁻¹ s⁻¹
